Data set [1] deals with GST:Gli1 fragment, zinc finger DNA binding region (UniProt P08151).

Data on one protein can be found in patent publication US20120283194.

Chain of GST:Gli1 fragment, zinc finger DNA binding region (P08151 235-387): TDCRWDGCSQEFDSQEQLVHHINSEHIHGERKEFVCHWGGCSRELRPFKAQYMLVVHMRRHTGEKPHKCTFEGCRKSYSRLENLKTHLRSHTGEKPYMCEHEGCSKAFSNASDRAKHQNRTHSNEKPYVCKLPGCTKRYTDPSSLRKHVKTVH
Chain of GST:Gli1 (P08151 whole entry): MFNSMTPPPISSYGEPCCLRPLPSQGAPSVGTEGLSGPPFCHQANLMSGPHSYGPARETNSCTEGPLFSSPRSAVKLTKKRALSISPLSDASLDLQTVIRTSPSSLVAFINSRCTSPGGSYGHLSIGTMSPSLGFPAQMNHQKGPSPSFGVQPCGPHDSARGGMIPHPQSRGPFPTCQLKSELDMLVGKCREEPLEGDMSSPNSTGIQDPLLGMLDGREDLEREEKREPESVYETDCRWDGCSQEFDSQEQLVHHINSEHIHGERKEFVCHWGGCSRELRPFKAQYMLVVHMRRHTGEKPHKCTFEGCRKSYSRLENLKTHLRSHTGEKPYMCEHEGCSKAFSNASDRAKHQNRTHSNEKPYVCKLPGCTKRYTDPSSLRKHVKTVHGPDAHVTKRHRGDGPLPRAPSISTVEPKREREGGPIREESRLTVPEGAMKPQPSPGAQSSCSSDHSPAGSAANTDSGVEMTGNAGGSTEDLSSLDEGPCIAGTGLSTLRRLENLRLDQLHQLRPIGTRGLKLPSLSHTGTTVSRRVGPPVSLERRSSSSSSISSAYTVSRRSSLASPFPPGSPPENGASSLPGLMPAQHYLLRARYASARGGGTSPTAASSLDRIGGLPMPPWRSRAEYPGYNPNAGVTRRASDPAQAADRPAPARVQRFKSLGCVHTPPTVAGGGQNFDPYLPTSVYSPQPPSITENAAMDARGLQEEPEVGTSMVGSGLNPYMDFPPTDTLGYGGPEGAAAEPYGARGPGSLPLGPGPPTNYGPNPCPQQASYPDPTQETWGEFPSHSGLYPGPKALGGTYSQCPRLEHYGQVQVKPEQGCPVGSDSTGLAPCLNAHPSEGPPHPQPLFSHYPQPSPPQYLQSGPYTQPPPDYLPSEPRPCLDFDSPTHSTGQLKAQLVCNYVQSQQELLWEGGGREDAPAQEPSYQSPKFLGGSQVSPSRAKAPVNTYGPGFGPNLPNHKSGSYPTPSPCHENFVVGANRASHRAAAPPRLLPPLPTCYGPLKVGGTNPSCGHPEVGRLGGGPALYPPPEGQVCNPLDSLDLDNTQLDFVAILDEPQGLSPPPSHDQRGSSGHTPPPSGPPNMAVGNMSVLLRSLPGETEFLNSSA

B1: recombinant HIS:aPKC (enzyme, UniProt P41743 2-596, looked up, species assumed)
Protein kinase C iota type: PTQRDSSTMSHTVAGGGSGDHSHQVRVKAYYRGDIMITHFEPSISFEGLCNEVRDMCSFDNEQLFTMKWIDEEGDPCTVSSQLELEEAFRLYELNKDSELLIHVFPCVPERPGMPCPGEDKSIYRRGARRWRKLYCANGHTFQAKRFNRRAHCAICTDRIWGLGRQGYKCINCKLLVHKKCHKLVTIECGRHSLPQEPVMPMDQSSMHSDHAQTVIPYNPSSHESLDQVGEEKEAMNTRESGKASSSLGLQDFDLLRVIGRGSYAKVLLVRLKKTDRIYAMKVVKKELVNDDEDIDWVQTEKHVFEQASNHPFLVGLHSCFQTESRLFFVIEYVNGGDLMFHMQRQRKLPEEHARFYSAEISLALNYLHERGIIYRDLKLDNVLLDSEGHIKLTDYGMCKEGLRPGDTTSTFCGTPNYIAPEILRGEDYGFSVDWWALGVLMFEMMAGRSPFDIVGSSDNPDQNTEDYLFQVILEKQIRIPRSLSVKAASVLKSFLNKDPKERLGCHPQTGFADIQGHPFFRNVDWDMMEQKQVVPPFKPNISGEFGLDNFDSQFTNEPVQLTPDDDDIVRKIDQSEFEGFEYINPLLMSAEECV
modifications: His tag
B1: in data set [1], the “in vitro kinase reaction” value is on record as “aPKC phosphorylates recombinantly expressed human Gli1 DNA-binding domain” and the “in vitro kinase reaction ([g-32P]ATP, SDS-PAGE, phosphor screen)” value is recorded as “with the majority of the phosphorylation occurring in the zinc finger DNA binding region of Gli1”. Besides, in the data set on GST:Gli1, the “in vitro kinase reaction ([g-32P]ATP, SDS-PAGE, phosphor screen)” value is listed as “aPKC phosphorylates Gli1 (FIG. 3i)”.
